Assay results published in the supplement of paper PMC10065799, “High-throughput profiling of sequence recognition by tyrosine kinases and SH2 domains using bacterial peptide display” (eLife, 2023).

Columns and labels:
[1] = biological target: SHP2-C SH2; experiment: SH2 binding enrichment of the phosphorylated peptide, bacterial display (enrichment ratio); higher = better substrate or ligand; peptides without Tyr show the background
[2] = biological target: c-Src SH2; experiment: as above
[3] = biological target: Grb2 SH2 (UniProt P62993); experiment: as above
[4] = biological target: FGFR1 (UniProt P11362); experiment: phosphorylation enrichment, bacterial display (enrichment ratio); higher = better substrate or ligand; peptides without Tyr show the background
[5] = tested on: AncSZ; experiment: as above
[6] = biological target: Jak2 (UniProt O60674); experiment: as above
[7] = tested on: Fer (mouse); experiment: as above
[8] = tested on: c-Abl (mouse); experiment: as above
[9] = biological target: Fes (UniProt P07332); experiment: as above
[10] = tested on: c-Src; experiment: as above
[11] = biological target: Hck (UniProt P08631); experiment: as above
[12] = biological target: Fyn (UniProt P06241); experiment: as above
[13] = biological target: FGFR3 (UniProt P22607); experiment: as above
[14] = biological target: EPHB2 (UniProt P29323); experiment: as above
[15] = biological target: MERTK (UniProt Q12866); experiment: as above
[16] = biological target: EPHB1 (UniProt P54762); experiment: as above
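For SH2 binding enrichment of the phosphorylated peptide, bacterial display in this document: peptide library displayed on the E. coli surface as eCPX fusions, selected cells deep-sequenced, score is each peptide's frequency after selection divided by its frequency in the input.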
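For phosphorylation enrichment, bacterial display in this document: 11-residue human phosphosite peptides and single-mutation variants displayed on the E. coli surface, counted by deep sequencing, each peptide's frequency after selection divided by its frequency in the unselected input library; frequency after pTyr selection over input frequency; kinase dosed for 20-30% of maximal phosphorylation in three min.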

Chain of Jak2 (O60674 whole entry, looked up): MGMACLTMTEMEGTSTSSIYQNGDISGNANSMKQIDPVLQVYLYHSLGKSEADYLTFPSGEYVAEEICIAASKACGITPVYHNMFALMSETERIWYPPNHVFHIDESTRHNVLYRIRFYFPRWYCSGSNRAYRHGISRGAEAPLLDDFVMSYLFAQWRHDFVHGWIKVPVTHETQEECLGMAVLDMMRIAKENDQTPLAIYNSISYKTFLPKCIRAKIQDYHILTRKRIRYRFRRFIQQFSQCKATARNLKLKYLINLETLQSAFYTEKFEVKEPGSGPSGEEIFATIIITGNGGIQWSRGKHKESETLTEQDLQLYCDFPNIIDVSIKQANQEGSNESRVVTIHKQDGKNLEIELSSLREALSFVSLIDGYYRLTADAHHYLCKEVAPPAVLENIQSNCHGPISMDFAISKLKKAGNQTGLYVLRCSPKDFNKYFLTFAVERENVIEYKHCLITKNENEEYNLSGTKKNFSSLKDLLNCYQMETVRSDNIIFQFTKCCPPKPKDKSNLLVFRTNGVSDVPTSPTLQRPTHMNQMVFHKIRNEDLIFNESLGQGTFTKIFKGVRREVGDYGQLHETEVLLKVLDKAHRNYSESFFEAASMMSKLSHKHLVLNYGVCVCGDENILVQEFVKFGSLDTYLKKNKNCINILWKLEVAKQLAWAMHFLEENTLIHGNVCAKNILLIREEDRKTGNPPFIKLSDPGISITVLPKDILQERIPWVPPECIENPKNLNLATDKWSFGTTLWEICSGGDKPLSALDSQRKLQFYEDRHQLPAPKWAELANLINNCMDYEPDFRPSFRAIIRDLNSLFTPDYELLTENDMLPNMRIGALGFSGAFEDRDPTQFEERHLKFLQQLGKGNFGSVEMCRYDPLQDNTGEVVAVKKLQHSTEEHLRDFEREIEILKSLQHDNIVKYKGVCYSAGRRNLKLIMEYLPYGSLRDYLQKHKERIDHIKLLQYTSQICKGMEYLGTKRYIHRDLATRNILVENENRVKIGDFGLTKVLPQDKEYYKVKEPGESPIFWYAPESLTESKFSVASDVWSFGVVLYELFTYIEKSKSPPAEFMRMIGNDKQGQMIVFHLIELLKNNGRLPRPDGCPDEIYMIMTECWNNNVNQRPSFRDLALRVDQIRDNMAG
Chain of EPHB1 (P54762 whole entry, looked up, the tested form may be a part): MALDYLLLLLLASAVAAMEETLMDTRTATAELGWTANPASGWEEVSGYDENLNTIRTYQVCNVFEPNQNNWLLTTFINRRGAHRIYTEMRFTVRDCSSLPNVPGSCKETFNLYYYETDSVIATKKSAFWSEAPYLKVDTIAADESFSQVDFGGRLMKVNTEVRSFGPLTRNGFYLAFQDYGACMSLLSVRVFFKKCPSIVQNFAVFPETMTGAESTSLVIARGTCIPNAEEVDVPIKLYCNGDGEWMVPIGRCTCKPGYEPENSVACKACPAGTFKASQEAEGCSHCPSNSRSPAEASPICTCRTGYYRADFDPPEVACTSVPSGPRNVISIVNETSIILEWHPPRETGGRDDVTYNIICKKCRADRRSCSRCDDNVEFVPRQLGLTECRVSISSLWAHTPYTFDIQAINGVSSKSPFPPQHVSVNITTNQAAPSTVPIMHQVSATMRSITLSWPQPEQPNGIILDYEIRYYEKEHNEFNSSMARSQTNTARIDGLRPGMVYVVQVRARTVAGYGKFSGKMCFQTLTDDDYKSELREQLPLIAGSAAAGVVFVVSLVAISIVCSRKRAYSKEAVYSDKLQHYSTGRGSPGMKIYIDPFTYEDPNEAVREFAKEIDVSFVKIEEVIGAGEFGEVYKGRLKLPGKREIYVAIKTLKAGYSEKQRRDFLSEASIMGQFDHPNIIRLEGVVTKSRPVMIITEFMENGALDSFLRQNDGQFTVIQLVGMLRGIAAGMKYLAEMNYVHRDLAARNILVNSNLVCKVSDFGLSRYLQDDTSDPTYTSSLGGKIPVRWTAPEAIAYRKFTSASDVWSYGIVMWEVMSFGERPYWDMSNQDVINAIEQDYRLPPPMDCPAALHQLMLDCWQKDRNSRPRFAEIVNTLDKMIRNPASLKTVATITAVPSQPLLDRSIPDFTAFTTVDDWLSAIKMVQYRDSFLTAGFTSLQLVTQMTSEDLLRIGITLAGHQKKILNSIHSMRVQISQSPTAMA
Chain of Hck (P08631 whole entry, looked up): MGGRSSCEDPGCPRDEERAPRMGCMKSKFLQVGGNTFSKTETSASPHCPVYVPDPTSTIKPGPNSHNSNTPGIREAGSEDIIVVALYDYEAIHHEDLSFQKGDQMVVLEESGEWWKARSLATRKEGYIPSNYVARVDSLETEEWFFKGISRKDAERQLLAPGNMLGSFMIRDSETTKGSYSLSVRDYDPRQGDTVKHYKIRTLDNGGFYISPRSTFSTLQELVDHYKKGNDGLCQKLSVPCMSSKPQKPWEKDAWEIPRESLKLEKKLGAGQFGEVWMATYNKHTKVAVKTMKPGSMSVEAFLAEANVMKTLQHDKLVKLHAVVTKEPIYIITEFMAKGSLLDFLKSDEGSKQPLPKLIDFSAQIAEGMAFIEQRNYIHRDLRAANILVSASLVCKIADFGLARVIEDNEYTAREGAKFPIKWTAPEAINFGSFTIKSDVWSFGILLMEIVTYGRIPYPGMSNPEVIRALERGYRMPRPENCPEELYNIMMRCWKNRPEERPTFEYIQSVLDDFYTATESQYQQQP
Chain of FGFR1 (P11362 whole entry, looked up): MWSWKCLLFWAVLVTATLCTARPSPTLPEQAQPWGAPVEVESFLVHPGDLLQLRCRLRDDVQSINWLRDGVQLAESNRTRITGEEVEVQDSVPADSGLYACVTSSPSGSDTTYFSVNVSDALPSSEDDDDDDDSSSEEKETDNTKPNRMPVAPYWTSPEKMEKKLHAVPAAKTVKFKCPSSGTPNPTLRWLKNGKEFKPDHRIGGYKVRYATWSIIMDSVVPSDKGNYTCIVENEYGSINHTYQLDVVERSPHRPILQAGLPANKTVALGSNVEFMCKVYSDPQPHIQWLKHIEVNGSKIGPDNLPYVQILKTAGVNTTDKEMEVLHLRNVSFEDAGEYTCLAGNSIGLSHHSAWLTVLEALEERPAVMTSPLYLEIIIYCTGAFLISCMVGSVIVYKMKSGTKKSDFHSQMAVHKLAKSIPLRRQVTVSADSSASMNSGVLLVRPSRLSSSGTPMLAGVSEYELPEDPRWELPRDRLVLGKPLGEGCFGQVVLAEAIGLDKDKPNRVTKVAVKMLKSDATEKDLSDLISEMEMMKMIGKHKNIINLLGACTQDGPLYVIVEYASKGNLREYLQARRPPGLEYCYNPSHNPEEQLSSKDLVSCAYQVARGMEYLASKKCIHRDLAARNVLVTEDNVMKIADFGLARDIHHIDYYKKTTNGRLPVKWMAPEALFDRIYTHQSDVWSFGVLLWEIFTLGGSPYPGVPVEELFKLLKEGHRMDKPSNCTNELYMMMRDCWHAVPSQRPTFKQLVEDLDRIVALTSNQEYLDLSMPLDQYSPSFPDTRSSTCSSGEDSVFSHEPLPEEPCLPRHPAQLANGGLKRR
Chain of MERTK (Q12866 whole entry, looked up): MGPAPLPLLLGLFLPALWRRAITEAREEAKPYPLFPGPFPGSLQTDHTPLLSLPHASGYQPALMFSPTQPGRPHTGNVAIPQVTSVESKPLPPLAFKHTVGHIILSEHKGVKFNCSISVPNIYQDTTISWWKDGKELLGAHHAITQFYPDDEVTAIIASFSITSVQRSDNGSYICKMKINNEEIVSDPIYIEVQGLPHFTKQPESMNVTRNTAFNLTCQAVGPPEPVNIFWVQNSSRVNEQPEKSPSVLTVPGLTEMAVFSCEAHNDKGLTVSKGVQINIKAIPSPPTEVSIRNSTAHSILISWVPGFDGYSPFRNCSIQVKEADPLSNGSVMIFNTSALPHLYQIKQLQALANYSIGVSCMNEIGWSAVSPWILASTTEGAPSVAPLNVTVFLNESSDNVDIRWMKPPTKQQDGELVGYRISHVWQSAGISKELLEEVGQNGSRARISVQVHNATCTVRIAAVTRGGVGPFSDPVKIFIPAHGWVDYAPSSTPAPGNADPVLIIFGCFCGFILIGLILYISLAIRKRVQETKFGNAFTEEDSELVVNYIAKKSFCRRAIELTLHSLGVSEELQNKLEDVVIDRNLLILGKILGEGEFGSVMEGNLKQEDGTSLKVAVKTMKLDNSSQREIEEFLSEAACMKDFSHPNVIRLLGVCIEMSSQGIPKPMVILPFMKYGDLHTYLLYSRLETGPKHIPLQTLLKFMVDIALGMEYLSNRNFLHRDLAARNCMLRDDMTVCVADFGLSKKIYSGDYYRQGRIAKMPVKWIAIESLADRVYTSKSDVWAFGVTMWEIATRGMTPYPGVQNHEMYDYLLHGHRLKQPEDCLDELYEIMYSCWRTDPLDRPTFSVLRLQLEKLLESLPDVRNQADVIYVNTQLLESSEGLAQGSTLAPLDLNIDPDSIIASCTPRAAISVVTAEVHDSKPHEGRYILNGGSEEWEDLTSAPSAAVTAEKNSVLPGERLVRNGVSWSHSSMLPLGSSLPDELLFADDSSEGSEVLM
Chain of Fyn (P06241 whole entry, looked up): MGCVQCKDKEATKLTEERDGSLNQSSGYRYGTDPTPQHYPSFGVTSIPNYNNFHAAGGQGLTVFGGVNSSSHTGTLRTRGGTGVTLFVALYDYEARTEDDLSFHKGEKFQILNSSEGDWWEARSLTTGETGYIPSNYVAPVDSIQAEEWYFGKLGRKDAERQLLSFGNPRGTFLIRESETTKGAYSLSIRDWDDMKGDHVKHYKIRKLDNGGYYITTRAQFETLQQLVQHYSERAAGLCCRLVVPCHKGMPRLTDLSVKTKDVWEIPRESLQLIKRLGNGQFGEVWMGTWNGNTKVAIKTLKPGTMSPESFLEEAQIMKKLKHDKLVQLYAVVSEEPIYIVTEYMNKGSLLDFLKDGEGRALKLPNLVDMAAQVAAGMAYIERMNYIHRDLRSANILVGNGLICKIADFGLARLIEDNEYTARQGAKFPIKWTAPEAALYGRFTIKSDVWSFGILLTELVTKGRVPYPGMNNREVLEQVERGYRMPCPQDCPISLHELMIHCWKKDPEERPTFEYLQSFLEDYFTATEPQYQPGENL

| Sequence | SH2 binding enrichment [1] | SH2 binding enrichment [2] | SH2 binding enrichment [3] | phosphorylation enrichment [4] | phosphorylation enrichment [5] | phosphorylation enrichment [6] | phosphorylation enrichment [7] | phosphorylation enrichment [8] | phosphorylation enrichment [9] | phosphorylation enrichment [10] | phosphorylation enrichment [11] | phosphorylation enrichment [12] | phosphorylation enrichment [13] | phosphorylation enrichment [14] | phosphorylation enrichment [15] | phosphorylation enrichment [16] |
| --- | --- | --- | --- | --- | --- | --- | --- | --- | --- | --- | --- | --- | --- | --- | --- | --- |
| KRLKDYLMVLQ [USP25_Y425_T427M] | 1.36 | 1.1 | 1.61 | 1.5 | 0.661 | 0.595 | 0.507 | 0.5 | 0.791 | 0.444 | 0.515 | 0.456 | 0.93 | 0.545 | 0.428 | 0.503 |
| VDTAMYATMQR [TPO_Y55] | 0.764 | 1.55 | 0.878 | 0.518 | 0.697 | 0.531 | 0.519 | 0.705 | 0.706 | 3.92 | 5.09 | 3.02 | 0.507 | 0.672 | 0.764 | 0.568 |
| PTTKTYFPHFY [HBA1_Y43_D48Y] | 1.25 | 0.73 | 0.771 | 0.628 | 0.782 | 0.974 | 0.825 | 0.785 | 0.873 | 0.56 | 0.535 | 0.884 | 1.14 | 0.735 | 0.508 | 0.46 |
| DQVEQCKKELE [LMNA_Y259_Y259C] | 0.937 | 0.524 | 0.79 | 0.528 | 1.2 | 1.1 | 0.518 | 0.746 | 1.27 | 0.562 | 0.703 | 0.52 | 0.733 | 0.625 | 0.49 | 0.59 |
| GIVEDYRPPVY [ACVRL1_Y421_F425V] | 0.524 | 0.47 | 0.825 | 0.458 | 0.817 | 0.77 | 0.479 | 0.539 | 0.953 | 0.437 | 0.505 | 0.406 | 0.53 | 0.547 | 0.403 | 0.524 |
| KLKRSYCSPDI [USP8_Y717_S718C] | 0.907 | 0.785 | 0.931 | 0.415 | 0.538 | 0.648 | 0.318 | 0.534 | 0.712 | 0.433 | 0.393 | 0.401 | 0.534 | 0.37 | 0.459 | 0.36 |
| ASTHVYQIMNH [ITK_Y588] | 0.833 | 14.3 | 0.73 | 0.508 | 0.703 | 0.55 | 1.34 | 0.623 | 0.722 | 2.58 | 2 | 1.39 | 0.423 | 0.487 | 1.61 | 0.991 |
| SLALFYRNVYH [RBL1_Y792_K794N] | 0.566 | 0.446 | 0.743 | 0.603 | 0.923 | 0.869 | 0.45 | 0.576 | 1.25 | 0.381 | 0.524 | 0.419 | 0.741 | 0.433 | 0.382 | 0.511 |
| GGDAVYTNGAI [RFX2_Y82] | 0.594 | 0.491 | 0.995 | 0.484 | 0.654 | 0.494 | 0.5 | 0.443 | 0.638 | 1.09 | 1.34 | 1.3 | 0.532 | 0.486 | 0.359 | 0.425 |

More lines, main results first:

| SH2 binding enrichment [1] | SH2 binding enrichment [2] | SH2 binding enrichment [3] | Sequence | phosphorylation enrichment [4] | phosphorylation enrichment [5] | phosphorylation enrichment [6] | phosphorylation enrichment [7] | phosphorylation enrichment [8] | phosphorylation enrichment [9] | phosphorylation enrichment [10] | phosphorylation enrichment [11] | phosphorylation enrichment [12] | phosphorylation enrichment [13] | phosphorylation enrichment [14] | phosphorylation enrichment [15] | phosphorylation enrichment [16] |
| --- | --- | --- | --- | --- | --- | --- | --- | --- | --- | --- | --- | --- | --- | --- | --- | --- |
| 0.718 | 0.491 | 1.11 | TYGVVYRAKDK [CDK11B_Y453] | 0.583 | 0.595 | 0.525 | 0.733 | 0.531 | 1.16 | 8.45 | 9.58 | 11.6 | 0.42 | 0.59 | 1.31 | 0.75 |
| 3.18 | 1.75 | 2.45 | KGKLIYLLRDS [NXPE1_Y350_G353R] | 0.428 | 0.719 | 0.692 | 0.492 | 0.666 | 0.964 | 0.516 | 0.599 | 0.49 | 0.599 | 0.447 | 0.443 | 0.455 |
| 0.676 | 0.576 | 0.888 | TGSFTCEAVEL [MTMR14_Y462_Y462C] | 0.529 | 1.19 | 0.892 | 0.619 | 0.77 | 1.24 | 0.483 | 0.573 | 0.65 | 0.811 | 0.659 | 0.419 | 0.661 |
| 0.576 | 0.508 | 0.817 | GGCQEYTGAPF [NAXD_Y85_YF] | 0.526 | 1.17 | 0.817 | 0.587 | 0.636 | 1.14 | 0.528 | 0.506 | 0.464 | 0.8 | 0.618 | 0.456 | 0.541 |
| 0.465 | 0.517 | 0.904 | LEISPYMLSGP [LRRK2_Y1718_R1723P] | 0.921 | 1.53 | 1.35 | 2.63 | 0.866 | 1.16 | 3.58 | 1.1 | 3.67 | 0.983 | 0.633 | 1.97 | 0.753 |
| 0.651 | 0.539 | 0.781 | MEVGQYIFVKC [CYBB_Y324] | 2.8 | 1.74 | 1.53 | 0.708 | 1.01 | 1.53 | 0.463 | 0.582 | 0.599 | 2.43 | 0.723 | 0.511 | 0.835 |
| 0.77 | 0.697 | 0.854 | SRVTQYERDFE [SNX1_Y463] | 0.501 | 0.837 | 0.635 | 0.419 | 0.844 | 0.954 | 0.396 | 0.476 | 0.46 | 0.611 | 0.486 | 0.379 | 0.428 |
